± gives the uncertainty stated by the source.
Assay: self-splicing fitness, log relative to wild type (ln ratio); higher = more splicing; Tetrahymena group I intron in knt gene, E. coli kanamycin selection, DiMSum; sequences stand for … in CUCUCU…GGAGGGAAAAGUUAUCAGGCAUGCACCUGGUAGCUAGUCUUUAAACCAAUAGAUUGCAUCGGUUUAAAAGGCAAGACCGUCAAAUUGCGGGAAAGGGGUCAACAGCCGUUCAGUACCAAGUCUCAGGGGAAACUUUGAGAUGGCCUUGCAAAGGGUAUGGUAAUAAGCUGACGGACAUGGUCCUAACCACGCAGCCAAGUCCUAAGUCAACAGAUCUUCUGUUGAUAUGGAUGCAGUUCACAGACUAAAUGUCGGUCGGGGAAGAUGUAUUCUUCUCAUAAGAUAUAGUCGGACCUCUCCUUAAUGGGAGCUAGCGGAUGAAGUGAUGCAACACUGGAGCCGCUGGGAACUAAUUUGUAUGCGAAAGUAUAUUGAUUAGUUUUGGAGUACUCGUGGUCG
In short: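 Fitness was computed with DiMSum as the error-weighted combination of replicate fold changes, kanamycin versus none, each normalised to wild type. The library randomised all eight intron nucleotides of the P1ex region, with the intron placed in the knt kanamycin-resistance gene on pET-22b(+) in E. coli BL21(DE3). Six replicate transformations were grown overnight at 37°C or 30°C on LB agar with or without 25 μg/mL kanamycin, plus 100 μg/mL carbenicillin, 50 μM IPTG and 0.2% rhamnose. Pooled colonies were amplicon-sequenced on an Illumina HiSeq 2500.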

GUGUAGCAAUAUUACGCGGC
self-splicing fitness (ln) (30 °C): -2.8 ± 0.29 | self-splicing fitness (ln) (37 °C): -0.745 ± 0.23

GUGUAGCAAUAUUACGCGUC
self-splicing fitness (ln) (30 °C): -3.17 ± 0.21 | self-splicing fitness (ln) (37 °C): -0.598 ± 0.14

GUGUAGCAAUAUUACGGACG
self-splicing fitness (ln) (30 °C): -0.958 ± 0.14 | self-splicing fitness (ln) (37 °C): -1.32 ± 0.17

GUGUAGCAAUAUUACGGAGG
self-splicing fitness (ln) (30 °C): -3.89 ± 0.29 | self-splicing fitness (ln) (37 °C): -2.67 ± 0.22

GUGUAGCAAUAUUACGGUCU
self-splicing fitness (ln) (30 °C): -1.6 ± 0.2 | self-splicing fitness (ln) (37 °C): 0.619 ± 0.2

GUGUAGCAAUAUUACGGUGU
self-splicing fitness (ln) (30 °C): -2.26 ± 0.16 | self-splicing fitness (ln) (37 °C): -0.0252 ± 0.14

GUGUAGCAAUAUUACGUAGA
self-splicing fitness (ln) (30 °C): -3.14 ± 0.25 | self-splicing fitness (ln) (37 °C): -1.8 ± 0.36

GUGUAGCAAUAUUACGUCCA
self-splicing fitness (ln) (30 °C): -1.74 ± 0.38 | self-splicing fitness (ln) (37 °C): -0.639 ± 0.39

GUGUAGCAAUAUUACGUGCC
self-splicing fitness (ln) (30 °C): -3.46 ± 0.35 | self-splicing fitness (ln) (37 °C): -2.7 ± 0.32

GUGUAGCAAUAUUACGUUAC
self-splicing fitness (ln) (37 °C): -2.56 ± 0.35

GUUAAGCAAUAUUACGACAU
self-splicing fitness (ln) (30 °C): -0.0837 ± 0.013 | self-splicing fitness (ln) (37 °C): 0.118 ± 0.033

GUUAAGCAAUAUUACGACGU
self-splicing fitness (ln) (30 °C): -0.121 ± 0.059 | self-splicing fitness (ln) (37 °C): 0.426 ± 0.069

GUUAAGCAAUAUUACGACUU
self-splicing fitness (ln) (30 °C): 0.183 ± 0.11 | self-splicing fitness (ln) (37 °C): 0.278 ± 0.13

GUUAAGCAAUAUUACGAGGC
self-splicing fitness (ln) (30 °C): -3.2 ± 0.28 | self-splicing fitness (ln) (37 °C): -1.34 ± 0.3

GUUAAGCAAUAUUACGAUAA
self-splicing fitness (ln) (30 °C): -1.48 ± 0.18 | self-splicing fitness (ln) (37 °C): -0.923 ± 0.2

GUUAAGCAAUAUUACGAUUC
self-splicing fitness (ln) (30 °C): 0.0872 ± 0.085 | self-splicing fitness (ln) (37 °C): -0.608 ± 0.11

GUUAAGCAAUAUUACGCAGG
self-splicing fitness (ln) (30 °C): -3.11 ± 0.38 | self-splicing fitness (ln) (37 °C): -2.47 ± 0.31

GUUAAGCAAUAUUACGCCGC
self-splicing fitness (ln) (30 °C): -3.02 ± 0.21 | self-splicing fitness (ln) (37 °C): -2.03 ± 0.31

GUUAAGCAAUAUUACGCGUC
self-splicing fitness (ln) (30 °C): -3.23 ± 0.26 | self-splicing fitness (ln) (37 °C): -1.96 ± 0.2

GUUAAGCAAUAUUACGCUGU
self-splicing fitness (ln) (30 °C): -2.62 ± 0.21 | self-splicing fitness (ln) (37 °C): -1.78 ± 0.17

GUUAAGCAAUAUUACGGACG
self-splicing fitness (ln) (30 °C): -1.07 ± 0.12 | self-splicing fitness (ln) (37 °C): -1.3 ± 0.14

— the supplement of paper PMC7877785
